Measurements from the RNAGym collection of RNA variant scans (doi:10.1073/pnas.2313332121).

B1: TPR t1 (parent)
chain: GACCAAUCUGCCCUCAGAGCUCGAGAACAUCUUCGGAUGCAGAGGAGGCAGGCUUCGGUGGCGCGAUAGCGCCAACGUCCUCAACCUCCAAUGCAUCCCACCACAUGAUGAUGCCUGAAGAGCCUUGGUUUUUUG

Variants of: B1
Assay: polymerase ribozyme fitness, log enrichment relative to wild type (log ratio); higher = more active; in vitro selection for triplet polymerase activity
Summary of the method: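 Fitness is a logarithmic measure of how a genotype enriched relative to the wild type, with replicate averages weighted by inverse variance. The logarithm uses base 2, and enrichment came from Illumina sequencing of input and output libraries. Those libraries were PCR-built, transcribed mutants of each subunit of a heterodimeric triplet polymerase ribozyme, passed through one triplicate in vitro selection round that included frozen incubation at −7 °C, gel excision of extended constructs and streptavidin-bead capture. Genotypes were kept only if they had ≥10 input reads and ≥1 read per output.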

Row | Variant | polymerase ribozyme fitness (log ratio)
1 | GACCAAUCUGCCCUCAGAGCUCGAGAACAUCUCCGGAUGCAGAGGAGGCAGGCUUCGGUGGCUCGAUAGCGCCAACGUCCUCAACCUCCAAUGCAUCCCACCACAUGAUGUUGCCUGAAGCGCAUUGGUUUUUUG [U33C G63U A111U A121C C124A] | -6.83
2 | GACCAAUCUGCCCUCAGAGCUCGAGAACAUCUGCGGAUGCAGAGGAGGCAGGCUUCGGUGGCGAGAUAGCUCCAACGUCCUCAACCUCCAAUGCAUCCCACCACAUGAUGAAGCCUGAAGAGCCUUGGUUUUUUG [U33G C64A G71U U112A] | -7.32
3 | GACCAAUCUGCCCUCAGAGCUCGAGAACAUCUCCGGAUGCAGAGGAGGCAGGCUUCGGUGGCGCGAUAGCGCCAACGUCCUCAACCUCCAAUGCAUCCCACCACAUGAUGAUGCCUGAAGCGCCUUGGUUUUUUG [U33C A121C] | -2.95
4 | GACCAAUCUGCCCUCAGAGCUCGAGAACAUCUCCGGAUGCAGAGGAGGCAGGCUUAGGUGGCGCGAUAGCGCCAACGUCCUCAACCUCCAAUGCAUCCCACCACAUGAUGAUGCCUGAAGAGCCUUGGUUUUUUG [U33C C56A] | -4.11
5 | GACCAAUCUGCCCUCAGAGCUCGAGAACAUCUGCGGAUGCAGAGGAGGCAGGCUUCGGUGGCGCGAUAGCGCCAACGUCCUCAACCUCCAAUGCAUCCCACCACAUGAUGAUGCCUGAAGAGCCUUGGUUUUUUG [U33G] | -5.67
6 | GACCAAUCUGCCCUCAGAGCUCGAGAACAUCUCCGGAUGCACAGGAGGCAGGCUUCGGUGGCGCGAUAGCGCCAACGUCCUCAACCUCCAAUGCAUCCGACCACGUGAUGAUCCCAGAAGAGGAUUGGUUUCUUG [U33C G42C C99G A105G G113C U116A C123G C124A U132C] | -7.71
7 | GACCAAUCUGCCCUCAGAGCUCGAGAACAUCUGCGGAUGCAGAGGAGGCAGGCUUCGGUGGCGCGAUAGCGCCAACGUCCUAAACCUCCAAUGCAUCCCACCACAUGAUGAUGCCUGAAGAGCCUUGGUUUUUUG [U33G C82A] | -5.59
8 | GACCAAUCUGCCCUCAGAGCUCGAGAACAUCUCCGGAUGCAGAGGAGGCAGGCUUCGGUGGCGCGAUAGCGCCAACGUCCUCAACCUCCAAUGCAUCCCACCACAUGAUGAUGCCUGAAGAGCCUUGGUUUUGUG [U33C U133G] | -5.56
9 | GACCAAUCUGCCCUCAGAGCUCGAGAACAUCUGCGGAUGCAGAGGAGGCAGGCUUCGGUGGCGCGAUAGCGGCAACGUCCUCAACAUCCACUGCAUCCCACCACAUGAUGAUGCCUGAAGAGCCUUGGUUUUUUG [U33G C72G C86A A91C] | -7.55
10 | GACCAAUCUGCCCUCAGAGCUCGAGAACAUCUCCGGAUGCAGAGGAGGCAGGCUUCGGUGGCGCGAUAACGCCAACGUCCUCCACCUCCAAUGCACCCCACCACAUGAUGAUGCCUGAUGAGCAUUUGUUUUUUG [U33C G69A A83C U96C A119U C124A G127U] | -5.27
11 | GACCAAUCUGCCCUCAGAGCUCGAGAACAUCUCCGGAUGCAGAGGAGGCAGGCUUCGGUGGCGCGAUAGCGUCAACGUCCUCAACCUCCAAUGCAUCCCACCACAUGAUGAUGCCUGAAGAGCCUUGGUUUUUUG [U33C C72U] | -3.04
12 | GACCAAUCUGCCCUCAGAGCUCGAGAACAUCUGCGGAUGCAGAGGAGGCAGGCUUCGGUGGCGCGAUAGCGCCAACGUGCUCAACCUCCAAUGCAUCCCACCACAUGAUGAUGCCUGAAGAGCCUUGGUUUUUUG [U33G C79G] | -6.57
13 | GACCAAUCUGCCCUCAGAGCUCGAGAACAUCUGGGGAUGCAGAGGAGGCAGUCUUCGGUGGCGCGAUAGCGCCAACGUCCUCAACCUCCAAUGCAUCCCACCACAUGAUGAUGCCUGAAGAGCCUUGGUUUUUUG [U33G C34G G52U] | -6.73
14 | GACCAAUCUGCCCUCAGAGCUCGAGAACAUCUCCGGAUGCAGAGGAGGCAGGCUUCGGUGGCGCGAUAGCGCCAACGUCCUCAACCUCCAAUGCAUCCCAACACAUGAUGAUGCCUGAAGUGCCUUGGUUUUUUG [U33C C101A A121U] | -4.76
15 | GACCAAUCUGCCCUCAGAGCUCGAGAACAUCUGCGGAUGCAGAGGAGGCAGGCUUCGGUGGCCCGAUAGCGCCAACGUCCUCAACCUCCAAUGCAUCCCACCACAUGAUGAUGCCUGAAGAGCCUUGGUUUUUUG [U33G G63C] | -5.3
16 | GACCAAUCUGCCCUCAGAGCUCGAGAACAUCUGAGGAUGCAGAGGAGUCAGGCUUCGGUGGCGCGAUAGCGCCAACGUCCUCAACCUCCAAUGCAUCCCACCACAUGAUGAUGCCUCAAGAGCCUUGGUUUUUUG [U33G C34A G48U G117C] | -7.42
17 | GACCAAUCUGCCCUCAGAGCUCGAGAACAUCUGCGAAUGCAGAGGAGGCAGGCUUCGGUGGCGCGAUAGCGCCAACGUCCUCAACCUCCAAUGCAUCCCACCACAUGAUGUUGCCUGAAGAGCCUUGGUUUUUUG [U33G G36A A111U] | -7.33
18 | GACCAAUCUGCCCUCAGAGCUCGAGAACAUCUCCGGAUGCAGAGGAGGCAGGCUUCGGUGCCGCGAUAGCGCCAACGUCCUCAACCUCCAAUGCAUCCCACCACAUGAUGAUGCCUGAAGAGCCUUGGUUUUUUG [U33C G61C] | -5.84
19 | GACCAAUCUGCCCUCAGAGCUCGAGAACAUCUCCGGAUGCAGAGGAGGCAGGCUUCGGUGUCGCGAUAGCGCCAACGUCCUCAACCUCCAAUGCAUCCCACCACAUGAUGAUGCCUGAAGAGCCUUGGUUUUUUG [U33C G61U] | -3.04
20 | GACCAAUCUGCCCUCAGAGCUCGAGAACAUCUCCGGAUGCAGAGGAGGCAGGCUUCGGUGGCACGAUAGCGCCAACGCCAUCAACCUCCAAUGCAUCCAACAACAUGAUGAUGCCGGAAGAGCCUUGGUUUUUUG [U33C G63A U78C C80A C99A C102A U116G] | -6.04
21 | GACCAAUCUGCCCUCAGAGCUCGAGAACAUCUGCGGAUGCAGAGGAGGCAGGCUUCGGUGUCGCGAUAGCGCCAACGUCCUCAACCUCCAAUGCAUCCCACCACAUGAUGAUGCCUGAAGAGCCUUGGUUUUUUG [U33G G61U] | -4.97
